T1: IL-18 receptor on HEK-Blue IL18R reporter cells (UniProt Q13478 19-541; O95256 20-599, limits assumed)
T1 sequence (looked up) 1: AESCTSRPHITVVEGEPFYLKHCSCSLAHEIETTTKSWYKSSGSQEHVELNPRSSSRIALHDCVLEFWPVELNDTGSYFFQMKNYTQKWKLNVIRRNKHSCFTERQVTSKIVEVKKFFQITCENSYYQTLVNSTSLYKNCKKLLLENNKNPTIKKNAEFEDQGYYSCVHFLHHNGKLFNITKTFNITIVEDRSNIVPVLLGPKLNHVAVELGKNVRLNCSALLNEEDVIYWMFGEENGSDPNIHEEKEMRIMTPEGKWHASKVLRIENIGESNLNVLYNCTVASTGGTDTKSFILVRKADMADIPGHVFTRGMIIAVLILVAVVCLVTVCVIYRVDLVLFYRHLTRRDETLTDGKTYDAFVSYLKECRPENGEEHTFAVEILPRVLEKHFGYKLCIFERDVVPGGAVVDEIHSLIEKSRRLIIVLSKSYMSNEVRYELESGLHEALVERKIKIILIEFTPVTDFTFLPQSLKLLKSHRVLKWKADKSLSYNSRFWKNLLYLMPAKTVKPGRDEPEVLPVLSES
T1 sequence (looked up) 2: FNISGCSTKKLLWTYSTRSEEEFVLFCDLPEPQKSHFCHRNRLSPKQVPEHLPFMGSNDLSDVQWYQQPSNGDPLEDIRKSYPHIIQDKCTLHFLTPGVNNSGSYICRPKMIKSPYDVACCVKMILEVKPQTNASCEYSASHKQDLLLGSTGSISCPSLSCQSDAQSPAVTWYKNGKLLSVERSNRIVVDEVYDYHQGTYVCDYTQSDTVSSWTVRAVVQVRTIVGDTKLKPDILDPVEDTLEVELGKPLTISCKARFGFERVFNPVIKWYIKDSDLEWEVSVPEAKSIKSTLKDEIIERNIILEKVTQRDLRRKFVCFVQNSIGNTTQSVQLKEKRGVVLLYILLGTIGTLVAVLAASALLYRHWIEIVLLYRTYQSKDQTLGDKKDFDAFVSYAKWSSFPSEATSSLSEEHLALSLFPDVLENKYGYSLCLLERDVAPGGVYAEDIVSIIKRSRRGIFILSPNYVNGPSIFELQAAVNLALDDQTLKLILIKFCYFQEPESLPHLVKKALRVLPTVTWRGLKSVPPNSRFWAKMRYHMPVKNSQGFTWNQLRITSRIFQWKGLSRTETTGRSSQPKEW


Target: T1, IL-18 receptor on HEK-Blue IL18R …
Test: cell-based or functional assay

Binder | EC50, HEK-Blue IL18R reporter (SEAP) [nM]
modified IL-18 polypeptide SEQ ID NO: 241 (N-terminal 4xG, E6K, V11I, C38A, K53A, T63A, C76A, C127A) (ligand) GGGGYFGKLKSKLSIIRNLNDQVLFIDQGNRPLFEDMTDSDARDNAPRTIFIISMYADSQPRGMAVAISVKCEKISTLSAENKIISFKEMNPPDNIKDTKSDIIFFQRSVPGHDNKMQFESSSYEGYFLAAEKERDLFKLILKKEDELGDRSIMFTVQNED | 2.5
modified IL-18 polypeptide SEQ ID NO: 218 (V11I, C38A, K53A, C76A, C127A, D132A) (ligand) YFGKLESKLSIIRNLNDQVLFIDQGNRPLFEDMTDSDARDNAPRTIFIISMYADSQPRGMAVTISVKCEKISTLSAENKIISFKEMNPPDNIKDTKSDIIFFQRSVPGHDNKMQFESSSYEGYFLAAEKERALFKLILKKEDELGDRSIMFTVQNED | 1.95
modified IL-18 polypeptide SEQ ID NO: 237 (E6K, V11I, C38A, K53A, T63A, C76A, C127A, V153E) (ligand) YFGKLKSKLSIIRNLNDQVLFIDQGNRPLFEDMTDSDARDNAPRTIFIISMYADSQPRGMAVAISVKCEKISTLSAENKIISFKEMNPPDNIKDTKSDIIFFQRSVPGHDNKMQFESSSYEGYFLAAEKERDLFKLILKKEDELGDRSIMFTEQNED | 0.1
modified IL-18 polypeptide SEQ ID NO: 238 (E6K, V11I, C38A, K53A, T63A, C76A, C127A, V153Y) (ligand) YFGKLKSKLSIIRNLNDQVLFIDQGNRPLFEDMTDSDARDNAPRTIFIISMYADSQPRGMAVAISVKCEKISTLSAENKIISFKEMNPPDNIKDTKSDIIFFQRSVPGHDNKMQFESSSYEGYFLAAEKERDLFKLILKKEDELGDRSIMFTYQNED | 0.08
modified IL-18 polypeptide SEQ ID NO: 221 (V11I, C38A, K53A, C76A, D110A, C127A) (ligand) YFGKLESKLSIIRNLNDQVLFIDQGNRPLFEDMTDSDARDNAPRTIFIISMYADSQPRGMAVTISVKCEKISTLSAENKIISFKEMNPPDNIKDTKSDIIFFQRSVPGHANKMQFESSSYEGYFLAAEKERDLFKLILKKEDELGDRSIMFTVQNED | 2.02
modified IL-18 polypeptide SEQ ID NO: 229 (V11I, C38A, C76A, S105K, C127A) (ligand) YFGKLESKLSIIRNLNDQVLFIDQGNRPLFEDMTDSDARDNAPRTIFIISMYKDSQPRGMAVTISVKCEKISTLSAENKIISFKEMNPPDNIKDTKSDIIFFQRKVPGHDNKMQFESSSYEGYFLAAEKERDLFKLILKKEDELGDRSIMFTVQNED | 7.73
modified IL-18 polypeptide SEQ ID NO: 222 (K8R, V11I, C38A, C76A, Q103E, C127A) (ligand) YFGKLESRLSIIRNLNDQVLFIDQGNRPLFEDMTDSDARDNAPRTIFIISMYKDSQPRGMAVTISVKCEKISTLSAENKIISFKEMNPPDNIKDTKSDIIFFERSVPGHDNKMQFESSSYEGYFLAAEKERDLFKLILKKEDELGDRSIMFTVQNED | 2.01
modified IL-18 polypeptide SEQ ID NO: 228 (V11I, C38A, C76A, S105I, C127A) (ligand) YFGKLESKLSIIRNLNDQVLFIDQGNRPLFEDMTDSDARDNAPRTIFIISMYKDSQPRGMAVTISVKCEKISTLSAENKIISFKEMNPPDNIKDTKSDIIFFQRIVPGHDNKMQFESSSYEGYFLAAEKERDLFKLILKKEDELGDRSIMFTVQNED | 5.37
modified IL-18 polypeptide SEQ ID NO: 239 (E6K, V11I, C38A, M51G, K53A, T63A, C76A, C127A) (ligand) YFGKLKSKLSIIRNLNDQVLFIDQGNRPLFEDMTDSDARDNAPRTIFIISGYADSQPRGMAVAISVKCEKISTLSAENKIISFKEMNPPDNIKDTKSDIIFFQRSVPGHDNKMQFESSSYEGYFLAAEKERDLFKLILKKEDELGDRSIMFTVQNED | 0.1
modified IL-18 polypeptide SEQ ID NO: 234 (E6K, V11I, C38A, K53A, T63A, C76A, Q103R, C127A) (ligand) YFGKLKSKLSIIRNLNDQVLFIDQGNRPLFEDMTDSDARDNAPRTIFIISMYADSQPRGMAVAISVKCEKISTLSAENKIISFKEMNPPDNIKDTKSDIIFFRRSVPGHDNKMQFESSSYEGYFLAAEKERDLFKLILKKEDELGDRSIMFTVQNED | 0.26
modified IL-18 polypeptide SEQ ID NO: 230 (K8L, E6K, V11I, C38A, K53A, T63A, C76A, C127A) (ligand) YFGKLKSLLSIIRNLNDQVLFIDQGNRPLFEDMTDSDARDNAPRTIFIISMYADSQPRGMAVAISVKCEKISTLSAENKIISFKEMNPPDNIKDTKSDIIFFQRSVPGHDNKMQFESSSYEGYFLAAEKERDLFKLILKKEDELGDRSIMFTVQNED | 0.29
modified IL-18 polypeptide SEQ ID NO: 240 (E6R, V11I, C38A, K53A, T63A, C76A, C127A) (ligand) YFGKLRSKLSIIRNLNDQVLFIDQGNRPLFEDMTDSDARDNAPRTIFIISMYADSQPRGMAVAISVKCEKISTLSAENKIISFKEMNPPDNIKDTKSDIIFFQRSVPGHDNKMQFESSSYEGYFLAAEKERDLFKLILKKEDELGDRSIMFTVQNED | 0.04
modified IL-18 polypeptide SEQ ID NO: 219 (V11I, C38A, K53A, C76A, G108A, C127A) (ligand) YFGKLESKLSIIRNLNDQVLFIDQGNRPLFEDMTDSDARDNAPRTIFIISMYADSQPRGMAVTISVKCEKISTLSAENKIISFKEMNPPDNIKDTKSDIIFFQRSVPAHDNKMQFESSSYEGYFLAAEKERDLFKLILKKEDELGDRSIMFTVQNED | 15.6
modified IL-18 polypeptide SEQ ID NO: 220 (V11I, C38A, K53A, C76A, H109A, C127A) (ligand) YFGKLESKLSIIRNLNDQVLFIDQGNRPLFEDMTDSDARDNAPRTIFIISMYADSQPRGMAVTISVKCEKISTLSAENKIISFKEMNPPDNIKDTKSDIIFFQRSVPGADNKMQFESSSYEGYFLAAEKERDLFKLILKKEDELGDRSIMFTVQNED | 19.5
modified IL-18 polypeptide SEQ ID NO: 224 (V11I, C38A, C76A, Q103K, C127A) (ligand) YFGKLESKLSIIRNLNDQVLFIDQGNRPLFEDMTDSDARDNAPRTIFIISMYKDSQPRGMAVTISVKCEKISTLSAENKIISFKEMNPPDNIKDTKSDIIFFKRSVPGHDNKMQFESSSYEGYFLAAEKERDLFKLILKKEDELGDRSIMFTVQNED | 1.5
modified IL-18 polypeptide SEQ ID NO: 226 (V11I, C38A, S55R, C76A, C127A) (ligand) YFGKLESKLSIIRNLNDQVLFIDQGNRPLFEDMTDSDARDNAPRTIFIISMYKDRQPRGMAVTISVKCEKISTLSAENKIISFKEMNPPDNIKDTKSDIIFFQRSVPGHDNKMQFESSSYEGYFLAAEKERDLFKLILKKEDELGDRSIMFTVQNED | 1.91
modified IL-18 polypeptide SEQ ID NO: 223 (K8E, V11I, C38A, C76A, Q103R, C127A) (ligand) YFGKLESELSIIRNLNDQVLFIDQGNRPLFEDMTDSDARDNAPRTIFIISMYKDSQPRGMAVTISVKCEKISTLSAENKIISFKEMNPPDNIKDTKSDIIFFRRSVPGHDNKMQFESSSYEGYFLAAEKERDLFKLILKKEDELGDRSIMFTVQNED | 2.3
modified IL-18 polypeptide SEQ ID NO: 225 (V11I, C38A, S55H, C76A, C127A) (ligand) YFGKLESKLSIIRNLNDQVLFIDQGNRPLFEDMTDSDARDNAPRTIFIISMYKDHQPRGMAVTISVKCEKISTLSAENKIISFKEMNPPDNIKDTKSDIIFFQRSVPGHDNKMQFESSSYEGYFLAAEKERDLFKLILKKEDELGDRSIMFTVQNED | 3.14
modified IL-18 polypeptide SEQ ID NO: 233 (E6K, V11I, C38A, I49R, K53A, T63A, C76A, C127A) (ligand) YFGKLKSKLSIIRNLNDQVLFIDQGNRPLFEDMTDSDARDNAPRTIFIRSMYADSQPRGMAVAISVKCEKISTLSAENKIISFKEMNPPDNIKDTKSDIIFFQRSVPGHDNKMQFESSSYEGYFLAAEKERDLFKLILKKEDELGDRSIMFTVQNED | 0.04
modified IL-18 polypeptide SEQ ID NO: 235 (E6K, K8E, V11I, C38A, K53A, T63A, C76A, Q103R, C127A) (ligand) YFGKLKSELSIIRNLNDQVLFIDQGNRPLFEDMTDSDARDNAPRTIFIISMYADSQPRGMAVAISVKCEKISTLSAENKIISFKEMNPPDNIKDTKSDIIFFRRSVPGHDNKMQFESSSYEGYFLAAEKERDLFKLILKKEDELGDRSIMFTVQNED | 0.4
modified IL-18 polypeptide SEQ ID NO: 232 (E6K, V11I, C38A, I49M, K53A, T63A, C76A, C127A) (ligand) YFGKLKSKLSIIRNLNDQVLFIDQGNRPLFEDMTDSDARDNAPRTIFIMSMYADSQPRGMAVAISVKCEKISTLSAENKIISFKEMNPPDNIKDTKSDIIFFQRSVPGHDNKMQFESSSYEGYFLAAEKERDLFKLILKKEDELGDRSIMFTVQNED | 0.07
modified IL-18 polypeptide SEQ ID NO: 227 (V11I, C38A, S55T, C76A, C127A) (ligand) YFGKLESKLSIIRNLNDQVLFIDQGNRPLFEDMTDSDARDNAPRTIFIISMYKDTQPRGMAVTISVKCEKISTLSAENKIISFKEMNPPDNIKDTKSDIIFFQRSVPGHDNKMQFESSSYEGYFLAAEKERDLFKLILKKEDELGDRSIMFTVQNED | 4.73

Source: patent publication US20230357342A1 (published 2023)
